Source: patent publication US20120039915A1 (University of California, published 2012)

B1: GC4 scFv (scFv)
scFv: QVQLVESGGGLVQPGGSLRLSCAASGFTFGTYDMSWVRQAPGKGLEWVSGISGSGGSTYYADSVKGRFTISRDNSKNTVYLQMNSLRVEDTAVYYCARGGWYSDNWGQGTLVTVSSGGGGSGGGGSGGGGSSELTQDPAVSVALGQTVRITCQGGSLRSYYASWYQQKPGQAPLLVIYGENNRPSGIPDRFSGSSSGNTASLTITGAQAEDEADYYCHSRDSSGNHVVFGGGTKLTV
notes: Human scFv from a naive fd phage library; also called GC4 phage antibody; parental GC4 scFv; not shown: lette
B2: GB8 scFv (scFv)
scFv: QVQLVESGGGLVQPGGSLRLSCAASGFTFSNYALTWVRQAPGKGLEWVSAISGSGGSTYYADSVKGRFTISRDTSKNTLYLQMNSLRAEDTAVYYCARGGYSYGPPFDYWGQGTLVTVSSGGGGSGGGGSGGGGSSELTQDPAVSVALGQTVRITCQGDSLRSYYASWYQQKPGQAPVLVIYGKNKRPSGIPDRFSGSSSGNTASLTITGAQAVDEADYHCNSRDSSGNHVVFGGGTKLTV
notes: His-tagged soluble scFv in the immunoprecipitation; also called GB8 phage antibody; not shown: lette
B3: GB1 scFv (scFv)
scFv: QVQLVQSGGGLVKPGGSLRLSCAASGFTFSNAWMNWVRQAPGKGLEWVGRIKSKTDGGTTDYAAPVNGRFTISRDDSKNTLYLQMNSLKTEDTAVYSCTTENWGSVNWGQGTLVTVSSGGGGSGGGGSGGGGSNFMLTQPPSVSVAPGKTASLTCGYNIGTKSVHWYQQKPGQAPVVVVHDDSDRPSGIPERFSGSNSGTTATLTISRVEAGDEADYYCQAWDSISEEVVFGGGTKLTV
notes: On fd phage in the Caco-2 FACS; His-tagged soluble scFv in the immunoprecipitation; also called GB1 phage antibody; not shown: lette
B4: GH9 scFv (scFv)
scFv: QVQLQESGGGLVKPGGSLRLSCAASGFTFSSYSMNWVRQAPGQGLEWVSSISSRNSDIYYADSVRGRFTISRDNAKNSLYLQMNSLRAEDTAVYYCARDSSGYSSSPSDYWGQGTLVTVSSGGGGSGGGGSGGGGSNFMLTQPPSVSVAPGKTASLTCGGYNIGTKSVHWYQQKPGQAPVVVVHDDSDRPSGIPERFSGSNSGTTATLTISRVEAGDEADYYCQAWDSISEEVVFGGGTKLTV
notes: On fd phage in FACS; His-tagged soluble scFv in the immunoprecipitation; also called GH9 phage antibody; not shown: lette

Key:
[1] = biological target: T1, antigen bound by the GC4 antibody on GBM tumor sphere cells (target antigen not determined); test: FACS on GBM tumor sphere cells at RT, MFI fitted (apparent dissociation constant)
T1 construct: also called GBM tumor spheres; GBM sphere cells
Procedure: FIG. 7A depicts the production of recombinant GC4 IgG. H: heavy chain. L: light chain. MW: molecular weight. […] Ctr: a non-binding human IgG1. […] FACS analysis was performed to determine binding of GC4 IgG1 (1 μg/ml) in the presence of the parental GC4 or four other scFvs (50 μg/ml each). Binding was detected by fluorescently labeled anti-human IgG antibody. Normalized mean fluorescence intensities were used to compare binding results. Error bars indicate standard deviations of duplicated experiments. *, P<0.05. […] MFI values were fitted using GraphPad. FIG. 7E depicts the binding constant of GC4 scFv to GBM tumor spheres. […] MFI values were fitted using GraphPad.
Affinity measurement: Varying concentrations of GC4 IgG1s were incubated with 10⁵ GBM cells at RT for 1 h in PBS containing 0.25% BSA. Bound IgG1s were detected by PE-conjugated goat anti-human antibody (Jackson ImmunoResearch) following incubation at RT for 30 min. Apparent dissociation constant was determined by FACS with mean fluorescence intensity (MFI) data fitted using GraphPad Prism (GraphPad Software). The apparent dissociation constant of GC4 scFv was measured similarly except that bound scFvs were detected by mouse anti-hexahistidine antibody (AbD Serotec/MorphoSys) followed by PE-conjugated goat anti-mouse antibody (Jackson ImmunoResearch).

CD133 [2] = biological target: T2, CD133 (human, UniProt O43490 20-865); test: FACS, biotin-labelled GC4 scFv on Caco2 cells (CD133-high by paragraph 182); '-' means lack of significant binding
T2 construct: whole, on cells; also called CD133 molecule
T2 sequence (looked up): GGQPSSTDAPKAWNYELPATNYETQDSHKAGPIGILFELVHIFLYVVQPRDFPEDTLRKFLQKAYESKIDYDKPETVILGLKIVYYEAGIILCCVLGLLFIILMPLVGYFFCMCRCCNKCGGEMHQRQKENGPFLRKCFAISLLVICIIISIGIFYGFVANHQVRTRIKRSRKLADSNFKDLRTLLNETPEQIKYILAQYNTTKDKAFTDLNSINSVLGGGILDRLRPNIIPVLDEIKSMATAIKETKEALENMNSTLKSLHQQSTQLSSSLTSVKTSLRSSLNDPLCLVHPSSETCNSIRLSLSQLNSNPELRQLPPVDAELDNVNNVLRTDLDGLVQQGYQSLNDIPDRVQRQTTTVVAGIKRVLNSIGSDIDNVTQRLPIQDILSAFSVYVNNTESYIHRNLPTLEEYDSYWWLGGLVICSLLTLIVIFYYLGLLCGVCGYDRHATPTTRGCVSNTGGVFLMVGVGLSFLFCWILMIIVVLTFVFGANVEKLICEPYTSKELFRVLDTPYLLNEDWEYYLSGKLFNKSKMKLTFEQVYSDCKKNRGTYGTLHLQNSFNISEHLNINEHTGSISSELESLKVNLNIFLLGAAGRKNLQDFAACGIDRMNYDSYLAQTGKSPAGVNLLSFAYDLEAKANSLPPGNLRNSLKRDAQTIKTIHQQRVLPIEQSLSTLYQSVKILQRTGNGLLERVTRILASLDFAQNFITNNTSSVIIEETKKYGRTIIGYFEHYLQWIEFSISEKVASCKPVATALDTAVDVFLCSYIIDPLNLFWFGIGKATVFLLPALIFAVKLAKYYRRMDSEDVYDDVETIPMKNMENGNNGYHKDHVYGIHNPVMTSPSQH
Procedure: For Table 1-6, biotin-labeled GC4 scFvs were tested for binding to a panel of human cell lines (all were tumor lines, except for BPH-1) by FACS. “+” indicates binding and “-” indicated lack of significant binding. Du-145 cells were derived from brain metastasis of prostate tumor.

CD133 [3] = biological target: T2, CD133; test: FACS, phage on Caco-2 cells
Procedure: FIG. 3 depicts the results of co-expression of the CD133 epitope and phage-bound antigens. FIG. 3A depicts FITC-labeled phage antibodies and biotin-labeled anti-CD133 mAb were studied on GBM sphere cells. A typical result from studies on GBMx-1 sphere cells is shown. Percentage of total cells is indicated for each quadrant. […] PE-conjugated control mouse IgG and anti-CD133 mAb were incubated with Caoa-2 cells and binding detected by FACS. […] Four tumor sphere cell-targeting phage (GB1, GB8, GH9 and GC4) were tested. Negative control: a non-binding phage. Positive control: a Caco-2 binding phage preparation. FIG. 3D depicts the results of antibody immunoprecipitation of Caco-2 lysates. Lane 1: immunoprecipitation with anti-CD133 mAb. Lane 2: immunoprecipitation with the GC4 antibody. All immunoprecipitation products were analyzed on a SDS-PAGE gel followed by Western blot with anti-CD133 antibody and horseradish peroxidase-conjugated anti-mouse secondary antibody. Arrow indicates CD133. Molecular weights (kd) are indicated.
Phage antibody binding to antigens other than CD133: Caco-2 cells that express high levels of CD133 were incubated with phage antibodies along with the positive control PE-conjugated anti-CD133 antibody at 4° C. for 1 h, washed twice with PBS, and bound phage detected by biotin-labeled anti-fd antibody followed by streptavidin-R-PE, and analyzed by FACS. For immunoprecipitation studies, 10⁵ Caco-2 cells were lysed in 1% NP40, 0.15 M NaCl, and 0.01 M sodium phosphate, pH 7.2, on ice for 2 h. Lysates were precleared and incubated with 50 μg/ml scFvs bearing a hexahistidine tag at 4° C. for 1 h, and captured onto Ni-NTA+ beads (Qiagen). […] All immunoprecipitation products were analyzed by 4-20% gradient SDS-PAGE, followed by Western blot with mouse anti-CD133 followed by horseradish peroxidase-conjugated goat anti-mouse antibody (Jackson ImmunoResearch) using ECL Plus™ (GE Healthcare).

Row | Binder | Kd [1] [nM] | binding result (CD133 [2]) | binding result (CD133 [3])
1 | B1 | 222 | no binding | 
2 | B2 |  |  | no binding
3 | B3 |  |  | no binding
4 | B4 |  |  | no binding
